The target in assay [1] is T1, soluble CD109 protein (full-length recombinant CD109) (human, UniProt Q6YHK3 22-1420, limits assumed).
T1 construct: also called FL CD109; CD109 soluble full-length protein
T1 sequence: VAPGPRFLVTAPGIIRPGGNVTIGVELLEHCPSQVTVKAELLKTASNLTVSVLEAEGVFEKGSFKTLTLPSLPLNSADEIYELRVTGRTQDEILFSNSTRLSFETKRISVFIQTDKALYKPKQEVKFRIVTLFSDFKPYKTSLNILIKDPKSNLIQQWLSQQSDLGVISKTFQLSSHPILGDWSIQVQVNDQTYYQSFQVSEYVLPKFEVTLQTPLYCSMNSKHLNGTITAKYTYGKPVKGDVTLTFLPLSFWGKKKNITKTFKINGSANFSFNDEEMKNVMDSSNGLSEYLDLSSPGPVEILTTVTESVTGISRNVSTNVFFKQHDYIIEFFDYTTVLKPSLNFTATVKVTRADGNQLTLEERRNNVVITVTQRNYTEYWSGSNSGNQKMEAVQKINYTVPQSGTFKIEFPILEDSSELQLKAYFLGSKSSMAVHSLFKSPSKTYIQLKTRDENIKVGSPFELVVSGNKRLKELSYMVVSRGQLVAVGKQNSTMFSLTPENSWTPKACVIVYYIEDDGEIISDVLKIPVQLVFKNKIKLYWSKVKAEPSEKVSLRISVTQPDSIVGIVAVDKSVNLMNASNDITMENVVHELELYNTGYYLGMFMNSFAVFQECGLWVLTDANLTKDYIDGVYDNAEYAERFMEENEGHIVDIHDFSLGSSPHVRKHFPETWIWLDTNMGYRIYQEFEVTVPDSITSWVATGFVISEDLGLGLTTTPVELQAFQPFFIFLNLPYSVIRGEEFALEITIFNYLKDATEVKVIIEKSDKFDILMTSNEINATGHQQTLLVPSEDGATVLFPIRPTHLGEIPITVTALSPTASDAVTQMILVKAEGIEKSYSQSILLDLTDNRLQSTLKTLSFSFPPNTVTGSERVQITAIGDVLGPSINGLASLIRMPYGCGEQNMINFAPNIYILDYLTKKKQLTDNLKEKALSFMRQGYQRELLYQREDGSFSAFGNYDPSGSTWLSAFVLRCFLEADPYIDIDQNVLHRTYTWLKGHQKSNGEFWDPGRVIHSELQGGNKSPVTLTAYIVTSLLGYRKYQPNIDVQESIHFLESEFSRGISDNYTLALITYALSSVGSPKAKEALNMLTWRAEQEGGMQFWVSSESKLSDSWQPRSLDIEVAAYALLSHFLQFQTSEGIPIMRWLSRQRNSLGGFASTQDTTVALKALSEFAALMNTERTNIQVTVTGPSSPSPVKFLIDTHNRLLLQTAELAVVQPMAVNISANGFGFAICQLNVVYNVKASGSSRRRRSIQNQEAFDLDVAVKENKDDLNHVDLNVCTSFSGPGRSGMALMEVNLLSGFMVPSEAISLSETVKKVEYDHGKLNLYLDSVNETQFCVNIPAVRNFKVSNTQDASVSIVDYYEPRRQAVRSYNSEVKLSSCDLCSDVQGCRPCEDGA
Briefly: SPR, BIACORE 3000; CD109 amine-coupled on CM5 chip, TGF-β as analyte. On the procedure:
(§1) Surface plasmon resonance assay: CD109 protein and peptides were tested for their ability to bind TGF-β using surface plasmon resonance. CD109 protein and peptides were amine-coupled onto a gold-dextran CM5 sensor chip as the ligands and TGF-β1/2/3 in HBS-ET buffer as the analytes were pumped across the CD109 amine-coupled sensor chip and binding response was measured using BIACORE 3000™ SPR detection system.
Background: Surface plasmon resonance follows binding to a sensor surface in real time, without labels.

Assay [2] concerns the target T2, Transforming Growth Factor-β1 (TGF-β1) (UniProt P01137 279-390, 125I label in the affinity labeling assays).
T2 construct: The background describes TGF-β as a 25 kDa growth factor; also called I125TGF-β1
Kind of assay: SPR, BIACORE 3000; Peptide A amine-coupled on CM5 chip, TGF-β1 as analyte. On the procedure:
as §1

As usually defined, the Kd is a measure of binding affinity in units of concentration.

T2 sequence (P01137 279-390 limits assumed): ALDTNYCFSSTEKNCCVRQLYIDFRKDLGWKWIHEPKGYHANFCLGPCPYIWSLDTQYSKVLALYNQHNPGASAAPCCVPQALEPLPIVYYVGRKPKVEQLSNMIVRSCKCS

B1: TGF-β2 (ligand, UniProt P61812 303-414, looked up)
chain: ALDAAYCFRNVQDNCCLRPLYIDFKRDLGWKWIHEPKGYNANFCAGACPYLWSSDTQHSRVLSLYNTINPEASASPCCVSQDLEPLTILYYIGKTPKIEQLSNMIVKSCKCS
For the molecule B1, in assay [1], the dissociation constant (Kd) was 1 nM.

B2: CD109 Peptide A (CD109 amino acids 606-766) (peptide)
chain: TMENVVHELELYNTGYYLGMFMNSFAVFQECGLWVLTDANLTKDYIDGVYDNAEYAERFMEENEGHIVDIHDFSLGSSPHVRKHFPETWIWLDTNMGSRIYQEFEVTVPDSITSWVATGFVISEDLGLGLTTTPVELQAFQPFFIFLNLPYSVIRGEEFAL
notes: also called CD109-based peptide
B2: in assay [2], the Kd worked out at 10 nM.
